Results published in patent EP3440111B1 (Fondazione Luigi Maria Monti, dated 2023).

What was measured:
[1] = target: T1, chimeric protein rhVEGFR-1/Fc (human, UniProt P17948 27-758); assay: Western blotting
T1 construct: extracellular domain;domain: Fc region; Bought from R&D Systems; also called sVEGFR-1/Fc; not shown: Fc region of human immunoglobulins

[2] = target: T2, sVEGFR-1 (soluble VEGFR-1) (Homo sapiens (Human), UniProt P17948 27-656); assay: ELISA on plates coated with a soluble form of VEGFR-1
T2 construct: Bought from RELIATech; also called soluble form of VEGFR-1
T2 sequence (P17948 other isoform, or with tags, fused parts or gaps limits assumed): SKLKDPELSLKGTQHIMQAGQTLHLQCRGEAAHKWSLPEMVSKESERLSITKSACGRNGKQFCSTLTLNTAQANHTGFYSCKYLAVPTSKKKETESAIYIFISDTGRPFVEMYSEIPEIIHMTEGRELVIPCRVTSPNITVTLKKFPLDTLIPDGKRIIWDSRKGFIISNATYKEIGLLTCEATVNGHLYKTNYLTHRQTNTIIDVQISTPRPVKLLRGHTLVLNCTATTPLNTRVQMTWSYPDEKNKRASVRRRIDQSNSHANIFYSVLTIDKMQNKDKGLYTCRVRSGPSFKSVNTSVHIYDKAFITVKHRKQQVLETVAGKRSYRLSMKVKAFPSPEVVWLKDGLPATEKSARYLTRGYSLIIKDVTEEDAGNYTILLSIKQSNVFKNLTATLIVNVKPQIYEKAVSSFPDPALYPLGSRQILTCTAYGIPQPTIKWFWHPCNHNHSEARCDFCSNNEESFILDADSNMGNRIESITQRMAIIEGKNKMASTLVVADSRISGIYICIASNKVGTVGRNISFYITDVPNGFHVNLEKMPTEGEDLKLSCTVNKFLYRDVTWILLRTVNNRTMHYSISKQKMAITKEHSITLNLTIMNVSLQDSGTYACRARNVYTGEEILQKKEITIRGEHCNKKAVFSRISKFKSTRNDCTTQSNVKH

T1 sequence (P17948 27-758, stated change not applied): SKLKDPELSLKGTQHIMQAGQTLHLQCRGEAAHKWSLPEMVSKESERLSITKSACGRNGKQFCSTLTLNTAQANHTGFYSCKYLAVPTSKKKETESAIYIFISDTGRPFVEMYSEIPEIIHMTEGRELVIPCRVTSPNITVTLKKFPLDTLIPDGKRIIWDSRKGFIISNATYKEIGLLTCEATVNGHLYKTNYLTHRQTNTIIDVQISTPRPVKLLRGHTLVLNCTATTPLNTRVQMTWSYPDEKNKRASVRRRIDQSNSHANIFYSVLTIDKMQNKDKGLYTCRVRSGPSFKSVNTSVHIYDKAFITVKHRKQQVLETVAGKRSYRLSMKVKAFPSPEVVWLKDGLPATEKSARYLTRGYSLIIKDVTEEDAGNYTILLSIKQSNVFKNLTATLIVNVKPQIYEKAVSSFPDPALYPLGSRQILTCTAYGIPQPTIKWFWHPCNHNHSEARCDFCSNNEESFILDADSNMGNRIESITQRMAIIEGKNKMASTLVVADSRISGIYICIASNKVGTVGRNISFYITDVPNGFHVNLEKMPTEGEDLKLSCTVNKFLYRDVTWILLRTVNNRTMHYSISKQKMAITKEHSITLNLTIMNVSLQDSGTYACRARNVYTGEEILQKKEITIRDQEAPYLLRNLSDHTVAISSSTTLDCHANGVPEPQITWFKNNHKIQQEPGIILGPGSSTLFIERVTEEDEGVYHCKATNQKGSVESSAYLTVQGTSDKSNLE

binding result [1]: binds | binding result [2]: binds
B1: monoclonal antibody D16F7 (antibody, V domains shown)
VH: QVQLQQPGSELVRPGASVKLSCKASGYIFTNYWMHWVKQRPGQGLEWIGEIYPRNGNTNYDEKFKGKATLTIDTSSSTAYMQLSSLTSEDSAVYYCATYLGDYWGQGTTLTVSS
VL: DVLMTQTPLSLPVSLGDQASISCRSSQSIVHSNGNTYLEWFLQKPGQSPKLLIYKVSNRFSGIPDRFSGSGSGTDFTLKISRVEAEDLGVYFCFQGSHVPYTFGGGTKLEIK
notes: Mouse IgG1 from a hybridoma (BALB/c mice immunized with peptide A4 as a MAP); also called D16F7 mAb; mAbD16F7
